Experimental data reported in US8889408B2, “Factor taking part in transcription control” (Sony Corporation, priority 2002, dated 2014).

Assays:
[1] = test system: Gal4 reporter plasmid (pGal4-Luciferase); test: Gal4 reporter (luciferase) promoter repression in NIH3T3 cells; assay type: cell-based
Source text: Assuming that HDART takes part in more direct inhibition, it is expected that it has an autonomous repression function. To confirm the above expectation, in order that HDART can bind to DNA the full-length HDART cDNA was fused to Gal4 DNA binding region (GAL4DBD: a region having only a binding region with GAL4DNA and lacking a transcription control region) to analyze whether the transcription from the GAL4A promoter could be regulated within NIH3T3 cells.
More particularly, a Gal4 DBD-HDART plasmid capable of expressing a full-length HDART and Gal4 DBD fused protein was transfected in different amounts (0, 0.1, 0.3, and 0.5 μg) into NIH3T3 cells previously prepared to contain Gal4 reporter plasmid (pGal4-Luciferase). It should be noted that in order to make a uniform total amount of DNA used for the transfection, the amount of an expression vector was equalized to 0.5 μg by adding the appropriate amount of a vacant vector of Gal4 DBD in each transfection. 24 hours after the transfection, the expression activity (Luciferase activity) of reporter genes from the promoter was analyzed. The luciferase activity for each sample is indicated as a corrected value based on the luciferase activity obtained by introduction of a vacant vector alone as a reference (100%) (FIG. 8). It will be noted that the results of the analysis were indicated as an average of the results of three experiments, and a standard deviation is indicated as an error bar (FIG. 8A). Similar analyses were made using a different type of cell, U-205 cell, with Gal4 DBD-HDART (in an amount of 0 or 0.5 μg) (FIG. 8B).

HDAC3 = HDAC3 (Homo sapiens, UniProt O15379); test: GST pulldown analysis; assay type: binding; conditions: GST-HDART fused protein versus GST protein
Source text: Further, the direct interaction between HDART and HDAC3 was investigated by GST pulldown analysis. The GST pulldown analysis was essentially carried out according to a known procedure (Tzamarias, D., and Struhl, K. (1995) Genes Dev 9(7), 821-31.). Using TNT (Registered Trademark) in vitro transcription/translation system (Promega), the in vitro translation of HDAC3 was made in the presence of ^35S-methionine. GST protein or GST-HDART fused protein was, respectively, expressed within Escherichia coli, followed by purification in a GST binding buffer solution (50 mM tris-HCl, 200 mM LiCl, 0.5% NP40, 5 mM EDTA, 1 mM PMSF) by use of glutathione sepharose. A binding reaction solution containing GST-HDART fused protein or control GST protein (about 1 μg) and ^35S-radio-labeled in vitro translation product (10 μl) in 1 ml of the GST binding buffer solution was prepared. This reaction solution was incubated at 4° C. for one hour while shaking, after which the resulting the sepharose-GST protein complex was washed five times with the GST binding buffer solution. […] It was confirmed by Coomassie brilliant blue staining that the GST fused protein was equally electrophoresed, and ^35S-radio-labeled HDAC was detected according to autoradiography.

[2] = test system: glucocorticoid receptor (GR); test: GR reporter CAT analysis in GR positive Hela cells; assay type: cell-based; conditions: co-expression of HDART; Hela cells; 10^−8 M dexamethasone
Procedure: Furthermore, the action of HDART on the transcription regulation by glucocorticoid receptor (GR) was analyzed by use of GR reporter plasmid in GR positive Hela cells. The transcription activity of a glucocorticoid response promoter was carried out in the same manner as in the experiment for the retinoic acid receptor except for the use of Hela cells and 10^−8 M of dexamethasone. The results of the measurement are shown in the same manner as shown above.
Next, the influence of the overexpression of N4TPR on the transcription from RAR or a glucocorticoid responsive promoter was checked. It will be noted that this test was made in the same manner as in the reporter analysis set out in Example 4, but using GFP-N4TPR expression vector (0, 0.3 and 0.5 μg).

Sequence of HDAC3 (O15379 whole entry, species assumed, the tested form may be a part): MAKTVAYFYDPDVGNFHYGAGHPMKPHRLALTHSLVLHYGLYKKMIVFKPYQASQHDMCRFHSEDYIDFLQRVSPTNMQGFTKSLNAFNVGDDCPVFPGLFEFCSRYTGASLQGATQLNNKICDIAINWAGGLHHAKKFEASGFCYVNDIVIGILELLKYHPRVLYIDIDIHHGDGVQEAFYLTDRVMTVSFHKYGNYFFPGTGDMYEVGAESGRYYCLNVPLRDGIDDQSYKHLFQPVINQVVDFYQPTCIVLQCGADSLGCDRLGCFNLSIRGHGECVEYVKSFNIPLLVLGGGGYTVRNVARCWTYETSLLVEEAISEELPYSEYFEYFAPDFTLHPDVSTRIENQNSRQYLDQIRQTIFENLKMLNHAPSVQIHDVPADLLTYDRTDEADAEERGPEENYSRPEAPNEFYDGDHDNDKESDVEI

B1: HDART: HDAC associated repressor TPR protein, 855 amino acids, SEQ ID NO: 2; transcription repressing factor, used as fusions or expressed from vector (protein, listed as Homo sapiens)
chain: MVVMARLSRPERPDLVFEEEDLPYEEEIMRNQFSVKCWLRYIEFKQGAPKPRLNQLYERALKLLPCSYKLWYRYLKARRAQVKHRCVTDPAYEDVNNCHERAFVFMHKMPRLWLDYCQFLMDQGRVTHTRRTFDRALRALPITQHSRIWPLYLRFLRSHPLPETAVRGYRRFLKLSPESAEEYIEYLKSSDRLDEAAQRLATVVNDERFVSKAGKSNYQLWHELCDLISQNPDKVQSLNVDAIIRGGLTRFTDQLGKLWCSLADYYIRSGHFEKARDVYEEAIRTVMTVRDFTQVFDSYAQFEESMIAAKMETASELGREEEDDVDLELRLARFEQLISRRPLLLNSVLLRQNPHHVHEWHKRVALHQGRPREIINTYTEAVQTVDPFKATGKPHTLWVAFAKFYEDNGQLDDARVILEKATKVNFKQVDDLASVWCQCGELELRHENYDEALRLLRKATALPARRAEYFDGSEPVQNRVYKSLKVWSMLADLEESLGTFQSTKAVYDRILDLRIATPQIVINYAMFLEEHKYFEESFKAYERGISLFKWPNVSDIWSTYLTKFIARYGGRKLERARDLFEQALDGCPPKYAKTLYLLYAQLEEEWGLARHAMAVYERATRAVEPAQQYDMFNIYIKRAAEIYGVTHTRGIYQKAIEVLSDEHAREMCLRFADMECKLGEIDRARAIYSFCSQICDPRTTGAFWQTWKDFEVRHGNEDTIKEMLRIRRSVQATYNTQVNFMASQMLKVSGSATGTVSDLAPGQSGMDDMKLLEQRAEQLAAEAERDQPLRAQSKILFVRSDASREELAELAQQVNPEEIQLGEDEDEDEMDLEPNEVRLEQQSVPAAVFGSLKED
promoter activity ([1]; Gal4 DBD-HDART plasmid 0, 0.1, 0.3, 0.5 μg, NIH-3T3 cells): significantly inhibits
lowering of the expression of luciferase ([1]; Gal4 DBD-HDART plasmid, highest concentration 0.5 μg, NIH-3T3 cells, 24 hours after transfection, vacant vector = 100%): 80%
expression inhibition of luciferase ([1]; HDART not having a GAL4 DNA binding region): not observed
pulldown of in vitro translated HDAC3 (HDAC3): pulled down
activation of the reporter gene responding to glucocorticoid [2]: inhibited
